The values that follow come from publication PMC5473643, “A semisynthetic Atg3 reveals that acetylation promotes Atg3 membrane binding and Atg8 lipidation” (Nature Communications, 2017).

What all share (details): both partners purified
The target of test [1] is T1, semi-synthetic Atg3 K19ac-K48ac (Saccharomyces cerevisiae, UniProt P40344 1-310, Gln27 mutated to Cys27 | S54C, acetyl-lysine at K19 and K48).
T1 construct: Atg3 of yeast Saccharomyces cerevisiae, Atg3(1-310), 310 amino acids, with Gln27 and Ser54 mutated to Cys for ligation; also called K19/K48-diacetylated Atg3; 2ac
T1 sequence (looked up): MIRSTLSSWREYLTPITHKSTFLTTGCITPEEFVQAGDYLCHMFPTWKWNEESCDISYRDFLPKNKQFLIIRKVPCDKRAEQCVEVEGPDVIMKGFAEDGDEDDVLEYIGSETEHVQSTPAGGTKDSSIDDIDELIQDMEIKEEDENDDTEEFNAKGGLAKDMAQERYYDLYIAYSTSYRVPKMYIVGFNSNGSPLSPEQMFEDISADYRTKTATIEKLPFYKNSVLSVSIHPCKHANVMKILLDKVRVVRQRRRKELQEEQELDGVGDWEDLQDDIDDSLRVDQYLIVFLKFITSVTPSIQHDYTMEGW
As to the kind of experiment: MST; Monolith NT.115 (20% LED, 20% MST power); Atg8 labelled with Dye NT-647 NHS, Atg3 at different concentrations; 50 mM Tris-HCl pH 7.4, 150 mM NaCl, 10 mM MgCl2, 0.05% Tween-20; apparent KD, mean of three independent experiments.

Test [2] concerns the target T2, WT Atg3 (bacterially expressed and purified) (Saccharomyces cerevisiae, UniProt P40344 1-310).
T2 construct: Atg3, E2-like enzyme of yeast Saccharomyces cerevisiae (310 amino acids); 'the region coding WT Atg3' inserted into pGEX-6P-1; GST excised with PreScission protease; residues of the vector may remain at the N-terminus (surmised); also called Atg3 WT; E. coli expressed WT Atg3; source: E. coli BL21 (DE3), purified (glutathione-Sepharose 4B, PreScission protease, Mono Q, Superdex 200)
T2 sequence (looked up): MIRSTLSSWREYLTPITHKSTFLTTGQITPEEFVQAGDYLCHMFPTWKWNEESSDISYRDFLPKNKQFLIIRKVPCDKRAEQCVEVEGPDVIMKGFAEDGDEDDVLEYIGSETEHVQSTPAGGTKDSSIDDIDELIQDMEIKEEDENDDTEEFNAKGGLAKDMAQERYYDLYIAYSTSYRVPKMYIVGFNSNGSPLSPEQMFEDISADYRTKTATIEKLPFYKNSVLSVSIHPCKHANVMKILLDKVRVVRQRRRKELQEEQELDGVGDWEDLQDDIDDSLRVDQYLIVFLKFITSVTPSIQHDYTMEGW
The test is described as above.

For test [3], the target named is T1, semi-synthetic Atg3 K19ac-K48ac. Briefly: SPR; Biacore T200, 25 °C; Atg3 immobilised by amine coupling on CM5 chip (400 RU); Atg8 injected at 30 μl/min up to 3,200 nM; 10 mM phosphate buffer, 2.7 mM KCl, 137 mM NaCl, 0.05% surfactant P20, pH 7.4. (In general: In SPR one partner is held on a chip, and binding of the other changes the refractive index at the surface.)

Test [4] concerns the target T2, WT Atg3 (bacterially expressed and …). The test is described as above.

B1: Atg8 (bacterially expressed and purified) (natural protein, yeast, UniProt P38182 1-117, looked up)
chain: MKSTFKSEYPFEKRKAESERIADRFKNRIPVICEKAEKSDIPEIDKRKYLVPADLTVGQFVYVIRKRIMLPPEKAIFIFVNDTLPPTAALMSAIYQEHKDKDGFLYVTYSGENTFGR
notes: Atg8 of yeast; 'the region coding ; Atg8' inserted into pGEX-6P-1; In the MST experiment this Atg8 was labelled on primary amines with Dye NT-647 NHS; also called recombinant Atg8; purified Atg8; source: E. coli BL21 (DE3), purified (glutathione-Sepharose 4B, PreScission protease, Mono Q, Superdex 200)
As for B1, the Kd in test [1] came out at 490 ± 80 nM; in test [2], 520 ± 70 nM; in test [3] it was 650 ± 70 nM; in test [4] it was 730 ± 50 nM.
